Measured values published in article PMC10002499 (2023).

Target: PDCD6 (ALG-2) construct (rat, UniProt G3V7W1 1-191)
Test: SPR; 0 added Ca2+

Chain of PDCD6 (ALG-2) construct (G3V7W1 whole entry): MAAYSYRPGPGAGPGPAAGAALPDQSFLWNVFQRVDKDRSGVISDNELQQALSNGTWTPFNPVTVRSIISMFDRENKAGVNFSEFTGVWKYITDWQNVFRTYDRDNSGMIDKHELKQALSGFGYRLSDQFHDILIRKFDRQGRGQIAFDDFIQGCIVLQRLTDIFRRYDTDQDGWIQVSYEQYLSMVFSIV

Kd: 160 nM
B1: dysferlin extended C2DE region (aa 1284-1576) (domain or fragment)
chain: AIHHIPGFEMHETSRILDETEDTDLPYPPPQREANIYMVPQNIKPALQRTAIEILAWGLRNIKSYQMASVSSPSLVVECGGQTVQSCVIRNLRKNPNFDVCTLFMEVMLPREDLYCPPIVVKVIDNRQFGRRPVVGQCTIRSLENFLCDPYSAESPSPQGGPDDVSLLSPGEDVLIDIDDKEPLIPVQEEEFIDWWSKFFASIGEREKCGSYLEKDFDTLKVYDTQLENVEAFGGLSDFCNTFKLYRGKTQEDTEDPSVIGEFKGLFKIYPLPEDPAIPMPPRQFHQLAAQGP
